Target: T1, ϕ29 DNA polymerase (wild-type) (bacteriophage ϕ29, UniProt P03680 1-575)
T1 sequence: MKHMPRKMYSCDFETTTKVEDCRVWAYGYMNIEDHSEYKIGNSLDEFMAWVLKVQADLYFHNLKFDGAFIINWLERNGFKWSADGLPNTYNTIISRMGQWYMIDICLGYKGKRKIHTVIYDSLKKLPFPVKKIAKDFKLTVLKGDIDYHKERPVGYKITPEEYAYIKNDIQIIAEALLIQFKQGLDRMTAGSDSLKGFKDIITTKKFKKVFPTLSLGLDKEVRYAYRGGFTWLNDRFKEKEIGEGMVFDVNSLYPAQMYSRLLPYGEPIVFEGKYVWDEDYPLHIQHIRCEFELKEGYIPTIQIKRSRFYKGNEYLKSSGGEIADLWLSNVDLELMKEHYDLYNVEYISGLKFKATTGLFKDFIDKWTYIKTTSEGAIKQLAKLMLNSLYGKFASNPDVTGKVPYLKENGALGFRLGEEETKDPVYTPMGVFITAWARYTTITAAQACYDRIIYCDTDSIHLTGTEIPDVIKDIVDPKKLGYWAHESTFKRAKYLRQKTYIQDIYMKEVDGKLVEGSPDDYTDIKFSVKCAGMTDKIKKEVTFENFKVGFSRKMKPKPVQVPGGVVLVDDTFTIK
Assay: cell-based or functional assay

B1: ϕ29 terminal protein mutant R158A (natural protein, bacteriophage ϕ29, UniProt P03681 1-266, looked up)
chain: MARSPRIRIKDNDKAEYARLVKNTKAKIARTKKKYGVDLTAEIDIPDLDSFETRAQFNKWKEQASSFTNRANMRYQFEKNAYGVVASKAKIAEIERNTKEVQRLVDEKIKAMKDKEYYAGGKPQGTIEQRIAMTSPAHVTGINRPHDFDFSKVRSYSALRTLEESMEMRTDPQYYEKKMIQLQLNFIKSVEGSFNSFDAADELIEELKKIPPDDFYELFLRISEISFEEFDSEGNTVENVEGNVYKILSYLEQYRRGDFDLSLKGF
TP-DNA amplification (%), activity with respect to the wild-type TP: 1 % of wild-type TP
TP-DNA replication, activity with respect to the wild-type TP: 17 % of wild-type TP
